Test results as given in publication PMC4413028 (Science (New York, N.Y.), 2015).
Changes are numbered by the printed parent chain. Numbers in names are those of the source.

B1: Get3(D57N) (native, full-length S. cerevisiae Get3, ATP hydrolysis mutant) (natural protein)
chain: MDLTVEPNLHSLITSTTHKWIFVGGKGGVGKTTSSCSIAIQMALSQPNKQFLLISTNPAHNLSDAFGEKFGKDARKVTGMNNLSCMEIDPSAALKDMNDMAVSRANNNGSDGQGDDLGSLLQGGALADLTGSIPGIDEALSFMEVMKHIKRQEQGEGETFDTVIFDTAPTGHTLRFLQLPNTLSKLLEKFGEITNKLGPMLNSFMGAGNVDISGKLNELKANVETIRQQFTDPDLTTFVCVCISEFLSLYETERLIQELISYDMDVNSIIVNQLLFAENDQEHNCKRCQARWKMQKKYLDQIDELYEDFHVVKMPLCAGEIRGLNNLTKFSQFLNKEYNPITDGKVIYELEDKE
B2: 6xHis-tagged Get3(D57N) (natural protein)
chain: B1 chain
B3: Get3 (S. cerevisiae, full-length, wild-type) (natural protein)
chain: B1 chain with N57D
B4: Get3 (S. cerevisiae, wild-type) co-expressed with 6xHis-Pep12(262-288) (natural protein)
chain: B1 chain with N57D

Legend:
[1] = target: B1; experiment: crystal structure
[2] = target: B4; experiment: SEC-MALS
[3] = target: the molecule itself; experiment: SEC-MALS
[4] = target: the molecule itself; experiment: SEC-MALS; remark: listed apart in the source
[5] = target: the molecule itself; experiment: sucrose gradient sedimentation

Binder	binding result [1]	stoichiometry N [3]	also measured
KINFDLLISQYAPIVIVAFFFVFLFWWIFLK (domain or fragment) [Sec22(184-214), truncated TA substrate with N-terminal 6xHis tag]	binds	–	–
KRTSRWRVYLLIVLLVMLLFIFLIMKL (domain or fragment) [Pep12(262-288), truncated TA substrate with N-terminal 6xHis tag]	binds	–	binding result [2]: binds
B1	–	2	–
B2	–	–	stoichiometry N [4]: 2
B3	–	–	stoichiometry N [5]: 2
B4	–	4	–
